B1: Drosophila Smo (dSmo): dSmoNQ5 (protein)
parent chain: MQYLNFPRMPNIMMFLEVAILCLWVVADASASSAKFGSTTPASAQQSDVELEPINGTLNYRLYAKKGRDDKPWFDGLDSRHIQCVRRARCYPTSNATNTCFGSKLPYELSSLDLTDFHTEKELNDKLNDYYALKHVPKCWAAIQPFLCAVFKPKCEKINGEDMVYLPSYEMCRITMEPCRILYNTTFFPKFLRCNETLFPTKCTNGARGMKFNGTGQCLSPLVPTDTSASYYPGIEGCGVRCKDPLYTDDEHRQIHKLIGWAGSICLLSNLFVVSTFFIDWKNANKYPAVIVFYINLCFLIACVGWLLQFTSGSREDIVCRKDGTLRHSEPTAGENLSCIVIFVLVYYFLTAGMVWFVFLTYAWHWRAMGHVQDRIDKKGSYFHLVAWSLPLVLTITTMAFSEVDGNSIVGICFVGYINHSMRAGLLLGPLCGVILIGGYFITRGMVMLFGLKHFANDIKSTSASNKIHLIIMRMGVCALLTLVFILVAIACHVTEFRHADEWAQSFRQFIICKISSVFEEKSSCRIENRPSVGVLQLHLLCLFSSGIVMSTWCWTPSSIETWKRYIRKKCGKEVVEEVKMPKHKVIAQTWAKRKDFEDKGRLSITLYNTHTDPVGLNFDVNDLNSSETNDISSTWAAYLPQCVKRRMALTGAATGNSSSHGPRKNSLDSEISVSVRHVSVESRRNSVDSQVSVKIAEMKTKVASRSRGKHGGSSSNRRTQRRRDYIAAATGKSSRRRESSTSVESQVIALKKTTYPNASHKVGVFAHHSSKKQHNYTSSMKRRTANAGLDPSILNEFLQKNGDFIFPFLQNQDMSSSSEEDNSRASQKIQDLNVVVKQQEISEDDHDGIKIEELPNSKQVALENFLKNIKKSNESNSNRHSRNSARSQSKKSQKRHLKNPAADLDFRKDCVKYRSNDSLSCSSEELDVALDVGSLLNSSFSGISMGKPHSRNSKTSCDVGIQANPFELVPSYGEDELQQAMRLLNAASRQRTEAANEDFGGTELQGLLGHSHRHQREPTFMSESDKLKMLLLPSK
B2: Drosophila Smo (dSmo): dSmoN213Q,N336Q (protein)
parent chain: B1 parent chain

Columns and labels:
[1] = immunofluorescence, Hh-induced plasma membrane vs ER marker, Cl8; conditions: glycan lost; control: wild type dSmo
[2] = western blot of wing imaginal disc lysates; conditions: glycan lost; control: wild type dSmo transgene
[3] = cycloheximide chase, Cl8 cells, densitometry; conditions: glycan lost; control: wild type dSmo
[4] = western blot of Cl8 cell lysates; conditions: glycan lost; control: wild type dSmo

Row | Protein | localisation_or_trafficking [1] | expression_or_secretion [2] | degradation_or_half_life, half_life [3] | expression_or_secretion [4]
1 | B1 | abolishes | no change | increases, ~4 vs ~1 | increases
2 | B2 | – | increases | – | –

— PMC4546403
